From patent US7135457B1, “Random peptides that bind to gastro-intestinal tract (GIT) transport receptors and related methods” (Cytogen Corporation, priority 1997, dated 2006)

How the values were obtained:
[1] = molecular target: T1, hPEPT1 (Homo sapiens, UniProt P46059); experiment: Receptor ELISA of phage on hPEPT1; type: binding; details: Table 4; ratio
T1 construct: 391-571; made in house
T1 sequence (P46059 391-571): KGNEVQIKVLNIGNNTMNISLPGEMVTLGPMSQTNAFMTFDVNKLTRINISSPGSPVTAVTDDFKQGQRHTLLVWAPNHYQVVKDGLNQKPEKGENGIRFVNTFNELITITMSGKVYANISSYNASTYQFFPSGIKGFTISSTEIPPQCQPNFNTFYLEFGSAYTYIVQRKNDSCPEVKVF
Protocol: The plates were blocked for one hour with 0.5% BSA-PBS. After clarification, the amplified phage were diluted 1:100 in 1% BSA plus 0.05% Tween 20 in PBS and added to the plates. Following incubation of the plates on a rotator for 1 to 2 hours, the plates were washed 5 times with 1% BSA plus 0.05% Tween 20 in PBS. […] After the plates were washed 5 times, as described above, TMB substrate was added to the wells. The plates were read at 650 nm absorbance.

[2] = molecular target: BSA (Bos taurus, UniProt P02769); experiment: Phage ELISA on BSA (background control protein); type: binding; details: Table 4
BSA, sequence (P02769 25-607): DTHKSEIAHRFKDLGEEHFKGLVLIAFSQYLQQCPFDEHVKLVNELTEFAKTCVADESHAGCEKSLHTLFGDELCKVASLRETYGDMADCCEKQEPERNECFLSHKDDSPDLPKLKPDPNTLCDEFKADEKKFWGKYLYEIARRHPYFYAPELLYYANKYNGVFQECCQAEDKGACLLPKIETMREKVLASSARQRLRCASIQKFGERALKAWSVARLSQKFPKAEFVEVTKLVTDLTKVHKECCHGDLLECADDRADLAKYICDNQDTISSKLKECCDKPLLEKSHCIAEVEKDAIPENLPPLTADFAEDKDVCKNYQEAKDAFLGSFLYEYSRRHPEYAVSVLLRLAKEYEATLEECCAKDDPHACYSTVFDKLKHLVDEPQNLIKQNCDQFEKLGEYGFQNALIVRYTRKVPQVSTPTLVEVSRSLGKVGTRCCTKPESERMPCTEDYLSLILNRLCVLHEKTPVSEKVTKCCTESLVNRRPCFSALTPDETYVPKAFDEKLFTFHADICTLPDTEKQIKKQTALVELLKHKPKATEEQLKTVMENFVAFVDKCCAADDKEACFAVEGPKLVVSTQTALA
Protocol: 96 well plates were coated overnight with GIT receptor, BSA and, optionally, IDE (insulin degrading enzyme, an irrelevant His-fusion protein) or hTF. The plates were blocked for one hour with 0.5% BSA-PBS. After clarification, the amplified phage were diluted 1:100 in 1% BSA plus 0.05% Tween 20 in PBS and added to the plates. Following incubation of the plates on a rotator for 1 to 2 hours, the plates were washed 5 times with 1% BSA plus 0.05% Tween 20 in PBS. Dilute anti-M13-HRP conjugate (anti-M13 antibody linked to horse radish peroxidase (HRP)) was added to all the wells and the plate was incubated for one hour on a rotator. After the plates were washed 5 times, as described above, TMB substrate was added to the wells. The plates were read at 650 nm absorbance.

[3] = Protocol: In particular, phages selected in vitro to each receptor or binding site located in the GIT were amplified in E. coli, PEG-precipitated, resuspended in TBS and the titer of each phage sample was determined by plaquing in E. coli as described above. […] Using the in situ loop model described above, 0.5 ml of preselected phage library solution was injected into the tied-off portion of the duodenum/jejunum. Blood was collected into heparinized tubes from the portal vein at 0, 15, 30, 45 and 60 minutes. A blood sample was taken from the systemic circulation at the end of the experiment. Similarly, the portion of the duodenum/jejunum used for phage injection was taken at the end of the experiment.
Thirty microliters of the collected portal blood (neat and 10^−2, 10^−4, 10^−6 dilutions) was added to 30 μl E. coli K91Kan cells (overnight culture) and incubated at 37° C. for 10 min. Subsequently, 3 ml of top agarose was added and the samples were plated for plaques. One hundred microliters of the collected portal blood was added to 100 μl of E. coli K91Kan. Five milliliters of LB medium was then added and the samples were incubated at 37° C. overnight in a rotating microbial incubator. The E. coli was removed by centrifugation and the amplified phage supernatant samples were either titered directly or were PEG-precipitated, resuspended in TBS and titered. Following titration of the amplified phage, samples containing phage from each set of animals were combined, adjusting the titer of each sample to the same titer, and were plated for plaques on LB agar plates (22 cm^2 square plates). Either 12,000 or 24,000 phage were plated for plaques.
Thirty microliters of the collected systemic blood (neat and 10^−2, 10^−4, 10^−6 dilutions) was added to E. coli K91Kan cells, incubated at 37° C. for 10 min. Three ml of top agarose was then added and the samples were plated for plaques. One hundred microliters of the collected systemic blood was added to 100 μl of E. coli K91Kan, incubated at 37° C. for 10 min. Five milliliters of LB medium was then added and the samples were incubated at 37° C. overnight in a rotating microbial incubator. The E. coli was removed by centrifugation and the amplified phage supernatant samples were either titered directly or were PEG-precipitated, resuspended in TBS and titered. Following titration of the amplified phage, samples containing phage from each set of animals were combined, adjusting the titer of each sample to the same titer, and were plated for plaques on LB agar plates (22 cm^2 square plates). Either 12,000 or 24,000 phage were plated for plaques. The intestinal tissue portion used in each closed loop was excised. […] Alternatively, the tissue (in PBS supplemented with protease inhibitors) was homogenized in an Ultra Thorex homogenizer, washed 3 times in PBS containing protease inhibitors and resuspended in PBS containing protease inhibitors (Int-G samples). In each case, serial dilutions (neat and 10^−2, 10^−4, 10^−6 dilutions) of the tissue homogenate was titered in E. coli.
The phage amplified from the portal blood, systemic blood and intestinal tissue was plated for plaques. […] The filters were air-dried, and the DNA was cross-linked to the filter (UV crosslinking: 2 min, high setting). The filters were incubated in pre-hybridization buffer (6×SSC, 5×Denhardt's solution, 0.1% SDS, 20 μg/ml yeast tRNA) at 40° C.-45° C. for at least 60 min.
Synthetic oligonucleotides, (22-mers), complimentary to regions coding for the receptor or binding sites used to create the preselected phage library, were synthesized (see Table 14 below).
The oligonucleotides (5 pmol) were 5′ end labelled with ^32P-ATP and T4 polynucleotide kinase and approximately 2.5 pmol of labelled oligonucleotide was used in hybridization studies. […] The filters were air-dried and exposed for autoradiography for 15 hours, 24 hours or 72 hours.
Hybridization data for pools from each receptor group of rats was compiled.

[4] = Drug potency, peptide loading and size of coacervated particles; type: physicochemical; details: formulation 1 particles (coacervation), blend

RGSTGTAGGERSGVLNLHTRDNASGSGFKPWYPSNRGHK [Peptide 5PAX5]
PEPT1/BSA [1]: 4
BSA [2]: 0.036 OD
presence in the systemic circulation (in words) ([3]; text summary of HPT1 and hPEPT1 pools): found in the systemic circulation
transport from the GIT closed loop into the portal circulation (in words) ([3]; text summary of hSI, D2H, HPT1, hPEPT1 pools): not found in the portal blood
presence in the intestine samples or fractions (in words) ([3]; text summary of the four pools): not found in the intestine samples
Insulin (insulin potency) ([4]; coated with the named peptide): 52.7 mg/g
Peptide (level of peptide coated onto the particles) ([4]; measured by fluorescence): 2.83 µL/mg
